Patent US20170088605A1 (Novartis, published 2017)
Changes are numbered by the printed parent chain.

T1: BKV serotype I infectious virus (VP1) (BK virus serotype I, UniProt P03088 1-362)
T1 sequence (looked up): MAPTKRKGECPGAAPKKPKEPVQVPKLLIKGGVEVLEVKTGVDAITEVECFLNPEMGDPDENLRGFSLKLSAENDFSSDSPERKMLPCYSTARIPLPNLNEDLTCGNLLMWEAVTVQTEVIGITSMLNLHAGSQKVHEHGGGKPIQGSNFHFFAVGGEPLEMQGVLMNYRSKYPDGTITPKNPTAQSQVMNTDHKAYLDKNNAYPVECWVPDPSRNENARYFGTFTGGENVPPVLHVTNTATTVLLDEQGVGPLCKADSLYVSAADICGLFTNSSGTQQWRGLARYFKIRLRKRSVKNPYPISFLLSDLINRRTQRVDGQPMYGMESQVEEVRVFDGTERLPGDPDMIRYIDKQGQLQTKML

B1: P8D11D (antibody)
heavy: not shown
light: QSVLTQPPSVSVAPGKTARITCGGDNIGSRPVHWYQQKPGQAPILVVYDDSNRPSGIPERFSGSNSGNTATLTISRVEAGDEADYYCQVWSSSTDHPFGGGTKVTVLGQPKAAPSVTLFPPSSEELQANKATLVCLISDFYPGAVTVAWKADSSPVKAGVETTTPSKQSNNKYAASSYLSLTPEQWKSHRSYSCQVTHEGSTVEKTVAPTECS
B2: 2077-4-1 (antibody, V domains shown)
VH: EVQLQQSGPELVKPGASMKISCKASGYSFTGYTMNWVKQSHGENLEWIGLFNPYNGGTRYNQKFKGKATLTVDKSSSTAYMELLSLTSEDSAVYYCARLRNYGIGDDFFDYWGQGTTLTVSS
VL: DIVMTQSHKFMSTSVGDRVSITCKASQDVGTAVAWYQQKPGQSPKLLIYWASTRHTGVPDRFTGSGSGTDFTLTISNVQSEDLTDYFCQQYSNYPYTFGGGTKLEIK
B3: 2077-28-2 (antibody, V domains shown)
VH: B2 VH with E43K, T58A, R59T, K63R, E82D, A97T, N101K
VL: B2 VL with T84A, N93T, P95T
B4: 2077-26-1 (antibody, V domains shown)
VH: B2 VH with E10D, I20L, E43K, T58P, R59S, S88P, N101Y
VL: B2 VL with Q38E, T84A, D85Y
B5: 2077-10-1 (antibody, V domains shown)
VH: B2 VH with V37M, S40G, E43K, T58P, R59N, N101Y
VL: B2 VL with S76T, N93S
B6: 2077-7-5 (antibody, V domains shown)
VH: B2 VH with E43K, T58I, R59N, N101Y, T117S
VL: B2 VL with Q27R, T84A, I106M

Columns and labels:
[1] = target: BKV serotype IV chimeric infectious virus (VP1 of strain ITA-4) (BK virus serotype IV); test: cell-based or functional assay
[2] = target: T1, BKV serotype I infectious virus (VP1); test: cell-based or functional assay
[3] = target: BKV serotype III chimeric infectious virus (VP1 of isolate AS) (BK virus serotype III); test: cell-based or functional assay
[4] = target: BKV serotype II chimeric infectious virus (VP1 of isolate SB) (BK virus serotype II); test: cell-based or functional assay
[5] = target: T2, BKV serotype I VP1 pentamer (BK virus serotype I, UniProt P03088 30-297); test: SET (solution equilibrium titration) on VP1 pentamers
T2 construct: also called serotype I pentamers; BKV-VP1 serotype I pentameric protein

[6] = target: T3, BKV serotype IV VP1 pentamer (BK virus serotype IV, UniProt P14996 30-297); test: as above
T3 construct: also called serotype IV pentamers

[7] = target: T4, BKV serotype III VP1 pentamer (BK virus serotype III, UniProt P14996 30-297); test: as above
T4 construct: also called serotype III pentamers

[8] = target: T5, BKV serotype II VP1 pentamer (BK virus serotype II, UniProt P14996 30-297); test: as above
T5 construct: also called serotype II pentamers

[9] = target: T6, JCV VLP (consensus) (JC virus, UniProt P03089 1-354); test: ELISA on coated JCV VLPs
T6 construct: also called JCV VLPs; JC virus VLPs

[10] = target: JCV infectious virus, isolates Mad-1 and Mad-4 (VP1) (JC virus); test: cell-based or functional assay
[11] = target: T6, JCV VLP (consensus); test: ELISA on plates coated with JCV VLPs, OD 450 nm

| Binder | IC50 [9] [nM] | neutralization EC50 [10] [µg/mL] | neutralization EC90 [10] [µg/mL] | EC50 (read off the curve) [11] [nM] | further results |
| --- | --- | --- | --- | --- | --- |
| B1 | – | – | – | – | neutralization EC50 [1]: 0.003 µg/mL; neutralization EC90 [1]: 0.063 µg/mL; neutralization EC50 [2]: 0.034 µg/mL; neutralization EC90 [2]: 0.15 µg/mL; neutralization EC50 [3]: 0.185 µg/mL; neutralization EC90 [3]: 0.87 µg/mL; neutralization EC50 [4]: 0.161 µg/mL; neutralization EC90 [4]: 1.64 µg/mL; Kd [5]: 0.005 nM; Kd [6]: 0.0032 nM; Kd [7]: 0.005 nM; Kd [8]: 0.002 nM |
| B2 | 0.034 | 0.138 | 3.06 | ~0.03 | – |
| B3 | 0.088 | 0.347 | 6.82 | ~0.09 | – |
| B4 | 0.067 | 0.702 | 3.2 | ~0.06 | – |
| B5 | 0.1 | 1.49 | > 10 | ~0.09 | – |
| B6 | 0.651 | 0.097 | 1.1 | ~0.6 | – |
